The values that follow come from patent publication US20120149881A1.

In this assay the target is human IgE with the M1′ sequence (long form of membrane IgE) expressed on transduced BJAB or Daudi cells (human) (UniProt P01854). Put plainly: number printed in the titration panel; FIG. 3M calls these numbers 'Scatchard Results' (BJAB-Long cells).

By pKd is commonly meant −log10 of the Kd, conventionally taken in molar units.

pKd: −log10 of the molar value.

Sequence of human IgE with the M1′ sequence (long form of membrane IgE) expressed on transduced BJAB or Daudi cells (human) (P01854 116-546 I515L limits assumed): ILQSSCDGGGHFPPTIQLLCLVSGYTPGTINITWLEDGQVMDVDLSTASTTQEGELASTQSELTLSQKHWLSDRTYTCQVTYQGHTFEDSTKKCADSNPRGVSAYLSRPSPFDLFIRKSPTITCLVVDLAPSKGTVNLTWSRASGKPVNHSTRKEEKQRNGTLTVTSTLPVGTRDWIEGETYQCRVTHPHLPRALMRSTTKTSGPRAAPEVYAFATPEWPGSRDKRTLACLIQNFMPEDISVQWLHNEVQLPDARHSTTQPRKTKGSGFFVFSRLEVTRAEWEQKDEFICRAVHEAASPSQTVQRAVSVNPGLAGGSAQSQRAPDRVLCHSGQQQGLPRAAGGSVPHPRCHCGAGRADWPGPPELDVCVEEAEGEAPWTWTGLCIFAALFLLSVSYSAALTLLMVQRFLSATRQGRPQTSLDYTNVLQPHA

anti-human IgE antibody MAE11 showed a negative-log Kd (pKd) of 10.40.
